Test results published in patent US20040002450A1 (published 2004).
Blank lines part the entries; values can stand above or below the binder they belong to. Non-standard residues stand in square brackets, D forms with d. No end group written: not given here. sY = N[C@@H](Cc1ccc(OS(=O)(=O)O)cc1)C(=O)O

Columns and labels:
Y1 scFv [1] = target: T1, Y1 scFv; assay: competition ELISA on coated glycocalicin, 0.25 µg/well Y1, peptide 25 µM
T1 construct: Fully human scFv from the Nissim I phage library; Used biotin-labelled in the Western blots; also called scFv Y1; scFv-Y1
Protocol: (§1) ELISA assays were developed to evaluate the effect of the GPIb derived synthetic peptides on the binding of Y1 to purified glycocalicin. In addition, FACS analysis using washed platelets was carried out. To evaluate the importance of sulfated tyrosine within the Y1 binding site of GPIb, a competitive binding FACS analysis was used. Y1-scFv at a concentration of 1 μg was preincubated with different peptides at concentrations of 2.5 and 200 μM. After a preincubation for 30 minutes at room temperature the mixture was added to a tube containing ˜10⁷ washed platelets and the binding of Y1 to the washed platelets was assessed using polyclonal rabbit anti-scFv-PE. The inhibitory effect of the peptides compared to control binding (Y1 alone) was evaluated by measuring the residual binding of Y1 to washed platelets. The peptides and the results are described in Table 1 and are similar to results that were observed using the same peptides in an ELISA assay (Table B). In both assays, a control level of Y1 binding was determined, as follows. A polystyrene microtiter maxisorb plate was coated with (a) purified glycocalicin or (b) washed platelets. After extensive washing, 0.5 μg/well of Y1 was added. The plate was then incubated with rabbit anti-scFv followed by addition of anti rabbit —HRP (horse radish peroxidase) and HRP substrate. The level of anti rabbit —HRP binding was measured by the intensity of the color produced, and the level of anti rabbit —HRP binding correlates with the level of binding of anti Y1-scFv and the level of binding of Y1. The optical density was measured at A405. Each sample was assayed in duplicate, and the average was calculated.
(§2) The effect of synthetic GPIbα peptides on Y1 binding to purified glycocalicin was evaluated by mixing varying concentrations of the peptides with a constant amount of Y1. […] The inhibitory effect of the peptides was evaluated by measuring the residual binding of Y1 to glycocalicin using rabbit anti Y1scFv and anti rabbit —HRP antibodies, as described for evaluation of Y1 binding in the absence of peptides.

Y1 scFv [2] = target: T1, Y1 scFv; assay: competitive FACS, 1 µg Y1-scFv on ~10^7 washed platelets, peptide 2.5 µM
Protocol: as §1

Y1 scFv [3] = target: T1, Y1 scFv; assay: competitive FACS, 1 µg Y1-scFv on ~10^7 washed platelets, peptide 200 µM
Protocol: as §1

Y1 scFv [4] = target: T1, Y1 scFv; assay: competition ELISA on coated glycocalicin, 0.25 µg/well Y1, peptide 0.5 µM
Protocol: as §1, §2

Y1 scFv [5] = target: T1, Y1 scFv; assay: competition ELISA on coated glycocalicin, 0.25 µg/well Y1, peptide 2.5 µM
Protocol: as §1, §2

PSGL-1 on KG-1 cells [6] = target: T2, PSGL-1 on KG-1 cells (human, UniProt Q14242 42-412, sulfated tyrosines in the N-terminal site); assay: FACS on KG-1 cells, directly FITC-labelled
T2 construct: whole, on cells; results told for KG-1 cells are written against this molecule; also called P-Selectin Glycoprotein Ligand-1; CD162
T2 sequence (looked up): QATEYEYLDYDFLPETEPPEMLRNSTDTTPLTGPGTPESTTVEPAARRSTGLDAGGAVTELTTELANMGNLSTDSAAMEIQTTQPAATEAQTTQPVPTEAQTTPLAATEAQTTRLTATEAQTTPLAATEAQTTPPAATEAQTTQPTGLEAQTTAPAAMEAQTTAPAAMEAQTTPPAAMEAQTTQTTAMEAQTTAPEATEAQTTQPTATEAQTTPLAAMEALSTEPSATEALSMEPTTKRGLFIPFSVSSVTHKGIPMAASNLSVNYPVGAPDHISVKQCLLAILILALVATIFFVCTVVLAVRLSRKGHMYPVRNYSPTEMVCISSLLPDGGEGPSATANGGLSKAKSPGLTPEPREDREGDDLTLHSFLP

PSGL-1 on KG-1 cells [7] = target: T2, PSGL-1 on KG-1 cells; assay: second radioreceptor competition assay on KG-1 cells
Protocol: (§3) The assay system involved the use of radioactive ligands that were prepared by iodination with ¹²⁵I using chloramine T on the Y1-IgG construct or the Bolton-Hunter (CONY1) reagent. The assay tubes contained 5×10⁶ KG-1 cells per 0.2 ml and a labeled tracer with varying amounts of unlabeled competitor, in PBS+0.1% BSA, pH 7.4. After one hour incubation with agitation at 4° C., the cells were thoroughly washed with cold buffer and taken for radioactivity counting.
In a second RRA using labeled CONYL, a 100 ng/tube of ¹²⁵I-Y1-IgG was used, and competition was performed with each of the three molecules.

PSGL-1 on KG-1 cells [8] = target: T2, PSGL-1 on KG-1 cells; assay: radio receptor assay on KG-1 cells, dimer as competitor
PSGL-1 on KG-1 cells [9] = target: T2, PSGL-1 on KG-1 cells; assay: radioreceptor competition assay on KG-1 cells, 125I-Y1-IgG tracer
Protocol: as §3
For the radio receptor binding assay (RRA), 2 ng/tube of ¹²⁵I-Y1-IgG was used, and competition was performed with each of the three molecules.

T1 sequence (scFv, as listed by the source): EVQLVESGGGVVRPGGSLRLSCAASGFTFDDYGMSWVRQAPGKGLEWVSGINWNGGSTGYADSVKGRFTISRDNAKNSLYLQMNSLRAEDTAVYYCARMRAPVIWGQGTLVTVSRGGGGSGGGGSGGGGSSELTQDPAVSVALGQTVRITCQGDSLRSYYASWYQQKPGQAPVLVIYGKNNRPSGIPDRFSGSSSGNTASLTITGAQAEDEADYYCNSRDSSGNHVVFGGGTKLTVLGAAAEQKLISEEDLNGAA

- Residual Binding of Y1 (% of baseline) (Y1 scFv [1]): 89 % of baseline
- Residual Binding of Y1 (% of baseline) (Geo Mean) (Y1 scFv [2]): 96 % of baseline
- Residual Binding of Y1 (% of baseline) (Geo Mean) (Y1 scFv [3]): 119 % of baseline
- Residual Binding of Y1 (% of baseline) (Y1 scFv [4]): 121 % of baseline
- Residual Binding of Y1 (% of baseline) (Y1 scFv [5]): 100 % of baseline
B1: EGR (peptide)
peptide: REEGRQHFFLLEGRSSYS
notes: also called negative control peptide

- Residual Binding of Y1 (% of baseline) (Y1 scFv [1]): 21 % of baseline
- Residual Binding of Y1 (% of baseline) (Geo Mean) (Y1 scFv [2]): 82 % of baseline
- Residual Binding of Y1 (% of baseline) (Geo Mean) (Y1 scFv [3]): 26 % of baseline
- Residual Binding of Y1 (% of baseline) (Y1 scFv [4]): 80 % of baseline
- Residual Binding of Y1 (% of baseline) (Y1 scFv [5]): 67 % of baseline
B2: P-3-S (peptide)
peptide: GDEGDTDL[sY]D[sY][sY]P

- Residual Binding of Y1 (% of baseline) (Y1 scFv [1]): 15 % of baseline
- Residual Binding of Y1 (% of baseline) (Geo Mean) (Y1 scFv [2]): 61 % of baseline
- Residual Binding of Y1 (% of baseline) (Geo Mean) (Y1 scFv [3]): 7 % of baseline
- Residual Binding of Y1 (% of baseline) (Y1 scFv [4]): 78 % of baseline
- Residual Binding of Y1 (% of baseline) (Y1 scFv [5]): 52 % of baseline
B3: P-2-S (peptide)
peptide: TDL[sY]D[sY][sY]PEEDTE

- fold less material than the monomer (PSGL-1 on KG-1 cells [6]): 10 fold
- Kd (PSGL-1 on KG-1 cells [7]): ~50 nM
- fold higher affinity than CONY1 (PSGL-1 on KG-1 cells [7]): 20 fold
- fold efficiency against the monomer (PSGL-1 on KG-1 cells [8]): 30 fold
- Kd (PSGL-1 on KG-1 cells [9]): ~40 nM
- fold higher affinity than CONY1 (PSGL-1 on KG-1 cells [9]): 30 fold
- fold lower affinity than the full Y1 antibody (PSGL-1 on KG-1 cells [9]): 2 fold
B4: Y1-cys-kak (cysteine dimer) (other)
scFv: MEVQLVESGGGVVRPGGSLRLSCAASGFTFDDYGMSWVRQAPGKGLEWVSGINWNGGSTGYADSVKGRFTISRDNAKNSLYLQMNSLRAEDTAVYYCARMRAPVIWGQGTLVTVSRGGGGSGGGGSGGGGSSELTQDPAVSVALGQTVRITCQGDSLRSYYASWYQQKPGQAPVLVIYGKNNRPSGIPDRFSGSSSGNTASLTITGAQAEDEADYYCNSRDSSGNHVVFGGGTKLTVLGGGGCKAK
modifications: Homodimer held by an interchain disulfide between Cys243 of chain 1 and Cys243 of chain 2.
notes: also called Y1-cys-kak scFv; dimer Y1-cys-kak
